Results as given in patent US20250326840A1 (QURE BIOTECHNOLOGY SHANGHAI, published 2025).
Where a chain is given by its changes, count along the chain named. Values belong to the binder of their own block, whether it stands above or below them.

Legend:
[1] = biological target: SIRPα V3 fusion Fc (mouse IgG2a) (human); test: ELISA, SIRPα V3-mouse IgG2a Fc coated, anti-hFab detection; unit from the x axis; the curve is flat at the baseline, the fit is marked ambiguous (~)
[2] = biological target: SIRPα V10 fusion Fc (mouse IgG2a) (human); test: ELISA, SIRPα V10-mouse IgG2a Fc coated, anti-hFab detection; unit from the x axis; the curve is flat at the baseline, the fit is marked ambiguous (~)
Chain of SIRPα V10 fusion Fc (mouse IgG2a) (human) (chain, as listed by the source limits assumed): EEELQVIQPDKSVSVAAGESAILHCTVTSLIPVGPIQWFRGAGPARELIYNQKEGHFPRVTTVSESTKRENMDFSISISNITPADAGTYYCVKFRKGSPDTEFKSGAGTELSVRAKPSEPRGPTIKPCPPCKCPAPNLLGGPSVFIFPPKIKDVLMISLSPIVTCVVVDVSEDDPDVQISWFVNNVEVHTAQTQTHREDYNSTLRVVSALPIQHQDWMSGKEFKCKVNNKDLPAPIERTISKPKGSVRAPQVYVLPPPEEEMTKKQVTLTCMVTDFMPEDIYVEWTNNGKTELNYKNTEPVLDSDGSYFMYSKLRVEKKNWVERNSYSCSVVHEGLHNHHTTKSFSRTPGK

[3] = biological target: SIRPα V8 fusion Fc (mouse IgG2a) (human); test: ELISA, SIRPα V8-mouse IgG2a Fc coated, anti-hFab detection
Chain of SIRPα V8 fusion Fc (mouse IgG2a) (human) (chain, as listed by the source limits assumed): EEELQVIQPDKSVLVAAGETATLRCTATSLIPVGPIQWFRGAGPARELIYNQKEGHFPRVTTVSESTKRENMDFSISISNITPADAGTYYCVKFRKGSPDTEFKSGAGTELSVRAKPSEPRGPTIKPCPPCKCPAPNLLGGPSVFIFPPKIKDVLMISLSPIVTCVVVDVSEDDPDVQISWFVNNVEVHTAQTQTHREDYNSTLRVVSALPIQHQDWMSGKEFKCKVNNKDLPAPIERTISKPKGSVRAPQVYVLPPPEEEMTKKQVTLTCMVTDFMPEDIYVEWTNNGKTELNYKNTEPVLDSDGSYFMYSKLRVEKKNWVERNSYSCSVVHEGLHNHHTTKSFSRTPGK

[4] = biological target: SIRPα V2 fusion Fc (mouse IgG2a) (human); test: ELISA, SIRPα V2-mouse IgG2a Fc coated, anti-hFab detection; unit from the x axis; the curve is flat at the baseline, the fit is marked ambiguous (~)
QP003 (PDL1-his) [5] = test: ELISA, QP003 (PDL1-his) captured on coated anti-his, anti-hFc detection; unit from the x axis; no rising curve is seen for it, the fit is marked ambiguous (~)
Chain of QP003 (PDL1-his) (chain, as listed by the source limits assumed): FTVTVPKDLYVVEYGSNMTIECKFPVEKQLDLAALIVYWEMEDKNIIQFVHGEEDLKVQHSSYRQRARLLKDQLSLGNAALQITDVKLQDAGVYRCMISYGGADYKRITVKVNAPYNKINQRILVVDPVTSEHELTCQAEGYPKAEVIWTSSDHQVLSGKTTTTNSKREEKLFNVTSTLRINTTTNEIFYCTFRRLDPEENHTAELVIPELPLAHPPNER

QP094 (human SIRPα V1 …) = biological target: T1, QP094 (human SIRPα V1 ECD(E31-R370)-flag-his) (human, UniProt P78324 31-370); test: SPR, Biacore 8K
T1 construct: the construct carries flag and his tags; also called SIRPαV1-flag-his; SIRPαV1-his (QP094)

[6] = biological target: T2, QP098 (cyno SIRPα (I7G9Z7) ECD(E31-R369)-flag-his) (cynomolgus); test: SPR, Biacore
T2 construct: the construct carries flag and his tags; also called cynoSIRPα (ECD); cynomolgus SIRPα
T2 chain: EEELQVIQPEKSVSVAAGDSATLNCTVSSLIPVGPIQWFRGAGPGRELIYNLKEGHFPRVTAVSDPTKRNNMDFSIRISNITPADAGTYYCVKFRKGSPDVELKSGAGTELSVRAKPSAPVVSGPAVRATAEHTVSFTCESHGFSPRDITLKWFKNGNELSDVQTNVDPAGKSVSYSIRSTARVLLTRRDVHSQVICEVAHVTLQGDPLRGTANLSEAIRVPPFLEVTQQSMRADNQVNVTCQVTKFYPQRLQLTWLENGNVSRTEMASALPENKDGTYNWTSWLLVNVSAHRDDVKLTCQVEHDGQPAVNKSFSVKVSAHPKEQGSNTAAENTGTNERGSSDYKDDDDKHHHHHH

[7] = biological target: T3, QP271 (rhesus SIRPα1-flag-his T-557-28) (rhesus monkey); test: SPR, Biacore
T3 construct: also called rhesus monkey SIRPα (QP271); monkeySIRPα1-flag-his
T3 chain: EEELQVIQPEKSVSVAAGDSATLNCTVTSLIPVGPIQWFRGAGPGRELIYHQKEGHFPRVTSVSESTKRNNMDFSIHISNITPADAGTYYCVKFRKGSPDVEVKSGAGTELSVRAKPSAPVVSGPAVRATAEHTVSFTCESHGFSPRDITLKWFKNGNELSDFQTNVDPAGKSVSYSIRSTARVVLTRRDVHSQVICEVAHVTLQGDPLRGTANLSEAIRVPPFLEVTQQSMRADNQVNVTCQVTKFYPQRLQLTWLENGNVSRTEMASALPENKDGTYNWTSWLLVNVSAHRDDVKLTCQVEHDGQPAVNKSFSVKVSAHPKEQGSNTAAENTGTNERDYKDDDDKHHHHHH

[8] = biological target: T2, QP098 (cyno SIRPα (I7G9Z7) …); test: binding ELISA, antigen coated
[9] = biological target: T3, QP271 (rhesus SIRPα1-flag-his T-557-28); test: binding ELISA, antigen coated
[10] = biological target: T4, QP273 (cynoSIRPα2-flag-his T-557-14) (cynomolgus); test: binding ELISA, antigen coated
T4 construct: also called cynomolgus SIRPα (QP273)
T4 chain: T3 chain with D19E, V27A, A42V, H51S, S62P, E65D, S66P, H77R, V103L

[11] = biological target: T5, QP100 (cyno SIRPα (G7PGS8) ECD(E29-R368)-flag-his) (cynomolgus); test: binding ELISA, antigen coated
T5 construct: the construct carries flag and his tags; also called cynoSIRPα-flag-his; Cynomolgus SIRPα (QP100)
T5 chain: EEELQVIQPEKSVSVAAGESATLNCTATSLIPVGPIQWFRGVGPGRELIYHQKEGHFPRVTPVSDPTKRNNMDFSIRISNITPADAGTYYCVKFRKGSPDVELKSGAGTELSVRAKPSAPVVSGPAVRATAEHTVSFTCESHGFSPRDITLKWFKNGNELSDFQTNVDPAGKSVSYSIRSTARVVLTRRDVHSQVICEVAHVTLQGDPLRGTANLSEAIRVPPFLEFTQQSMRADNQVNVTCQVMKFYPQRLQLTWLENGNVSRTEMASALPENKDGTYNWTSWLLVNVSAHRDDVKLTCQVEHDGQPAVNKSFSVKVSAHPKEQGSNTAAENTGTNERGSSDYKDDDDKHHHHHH

QP003 (PDL1-his) [12] = test: ELISA, QP003 (PDL1-his) captured on coated anti-his, anti-hFc detection; unit from the x axis; the curve is flat at the baseline, the fit is marked ambiguous (~)
QP002 = biological target: T6, QP002 (biotinylated in the blocking assays, sites not given); test: blocking ELISA: CD47 FC (QP001) coated, biotin SIRPα-FC (QP002) mixed with the antibody, HRP-streptavidin; blocked ligand: CD47; unit from the x axis Log(Conc.(nM))
T6 construct: also called SIRPα-FC; Biotin-QP002
T6 sequence (SIRPα-Fc fusion chain, as listed by the source): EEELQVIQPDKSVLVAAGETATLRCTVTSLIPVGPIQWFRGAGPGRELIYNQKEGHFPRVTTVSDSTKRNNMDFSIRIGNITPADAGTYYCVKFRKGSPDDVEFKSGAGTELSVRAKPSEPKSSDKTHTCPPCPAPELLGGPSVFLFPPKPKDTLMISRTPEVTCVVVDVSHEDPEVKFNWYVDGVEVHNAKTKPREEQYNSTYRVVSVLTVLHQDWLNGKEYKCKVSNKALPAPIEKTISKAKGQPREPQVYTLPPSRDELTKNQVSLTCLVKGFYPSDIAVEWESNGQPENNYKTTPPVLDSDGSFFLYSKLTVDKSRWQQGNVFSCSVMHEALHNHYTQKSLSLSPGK

- EC50 [1]: ~58.7 nM
- EC50 [2]: ~0.0554 nM
- EC50 [4]: ~0.0554 nM
B1: QP250251 (18D5 analog) (antibody, human IgG4 S228P, kappa, V domains shown)
VH: QVQLQQPGAELVRPGSSVKLSCKASGYTFTSYWVHWVKQRPIQGLEWIGNIDPSDSDTHYNQKFKDKASLTVDKSSSTAYMQLSSLTFEDSAVYYCVRGGTGTMAWFAYWGQGTLVTVSA
VL: DVVMTQTPLSLPVSLGDQASISCRSSQSLVHSYGNTYLYWYLQKPGQSPKLLIYRVSNRFSGVPDRFSGSGSGTDFTLKISRVEAEDLGVYFCFQGTHVPYTFGSGTKLEIKR
notes: also called SIRPα antibody 18D5 from OSE
- binding result [3]: no binding (tested: about 67 nM (last point at log 1.8))

- EC50 (QP003 (PDL1-his) [5]): ~0.685 pM
- Kd (QP094 (human SIRPα V1 …)): 4.7 nM
- koff (QP094 (human SIRPα V1 …)): 0.00386 s⁻¹
- kon (QP094 (human SIRPα V1 …)): 822000 M⁻¹ s⁻¹
B2: QP026249 (KWAR23 analog) (antibody, human IgG4 S228P, kappa)
heavy: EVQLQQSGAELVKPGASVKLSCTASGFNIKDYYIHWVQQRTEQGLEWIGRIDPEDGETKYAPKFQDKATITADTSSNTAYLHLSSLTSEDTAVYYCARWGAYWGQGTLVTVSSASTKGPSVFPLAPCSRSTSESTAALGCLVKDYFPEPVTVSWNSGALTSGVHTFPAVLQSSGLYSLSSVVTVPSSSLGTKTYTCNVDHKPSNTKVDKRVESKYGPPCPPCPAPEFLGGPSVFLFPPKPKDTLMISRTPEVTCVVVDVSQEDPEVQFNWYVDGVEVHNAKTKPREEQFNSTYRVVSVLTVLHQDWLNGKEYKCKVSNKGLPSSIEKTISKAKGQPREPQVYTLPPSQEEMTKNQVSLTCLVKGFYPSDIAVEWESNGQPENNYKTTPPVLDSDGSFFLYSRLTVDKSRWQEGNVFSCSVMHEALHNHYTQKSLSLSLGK
light: QIVLTQSPAIMSASPGEKVTLTCSASSSVSSSYLYWYQQKPGSSPKLWIYSTSNLASGVPARFSGSGSGTSYSLTISSMEAEDAASYFCHQWSSYPRTFGAGTKLELKRTVAAPSVFIFPPSDEQLKSGTASVVCLLNNFYPREAKVQWKVDNALQSGNSQESVTEQDSKDSTYSLSSTLTLSKADYEKHKVYACEVTHQGLSSPVTKSFNRGEC
notes: also called KAWA23 analog; control antibody KWAR23 (QP026249), human IgG4

- Kd [6]: 1.56 nM
- Kd [7]: 0.441 nM
- EC50 [8]: 0.619 ng/mL
- EC50 [9]: 0.601 ng/mL
- EC50 [10]: 0.721 ng/mL
- EC50 [11]: 0.558 ng/mL
B3: QP256279 (antibody, human IgG4, V domains shown)
VH: QVQLVQSGAEVKKPGASVKVSCKASGYTFTNYWINWVRQAPGQGLEWIAMIDPSDSETHYNQIFKDRATLTTDTSTSTAYMELRSLRSDDTAVYYCAMDYGSLYAMDYWGRGTLVTVSS
VL: DIVLTQSPDSLAVSLGERATINCRASQSVRSSGYNWIFWYQQKPGQPPKLLIYLASNRDSGVPDRFSGSGSGTDFTLTISSLQAEDVAVYYCQHSRELPTFGQGTKLEIK
notes: Human IgG4 heavy constant region and kappa CL

- EC50 (QP003 (PDL1-his) [12]): ~0.628 pM
- IC50 (QP002): 0.208 nM
B4: QP32700279 (antibody, human IgG1, kappa, L234A L235A, V domains shown)
VH: B3 VH
VL: DIVLTQSPDSLAVSLGERATINCRASQSVRSSGYNWIFWYQQKPGQPPKLLIYLASNRDSGVPDRFSGSGSGTDFTLTISSLQAEDVAVYYCQHSRELPTFGQGTKLEIKR
notes: also called SIRPα monoclonal antibody CHO71
